Patent US20220213462A1

Target: peptide VWF73 (FRET substrate encompassing the ADAMTS13 recognition site of von Willebrand factor) (UniProt P04275)
Experiment: cell-based or functional assay
Conditions: scale: µL of normal human plasma equivalent per 200,000 cells

Sequence of peptide VWF73 (FRET substrate encompassing the ADAMTS13 recognition site of von Willebrand factor) (P04275 1596-1668 limits assumed): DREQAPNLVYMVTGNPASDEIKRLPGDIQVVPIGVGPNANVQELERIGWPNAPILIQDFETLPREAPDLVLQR

“GPI-ADAMTS13 (AD5): first 745 amino acids of human ADAMTS13 fused to the DAF GPI anchor sequence (from UniProt Q76LX8 75-745) (enzyme)” gave a VWF73 FRET assay, ADAMTS13 enzymatic activity (K562 cells) of 10 and a VWF73 FRET assay, ADAMTS13 enzymatic activity (iPSC-derived erythroid cells) of 10.
